According to the supplement of paper PMC7877785:
± gives the uncertainty stated by the source.

Test: self-splicing fitness, log relative to wild type (ln ratio); higher = more splicing; Tetrahymena group I intron in knt gene, E. coli kanamycin selection, DiMSum; sequences stand for … in CUCUCU…GGAGGGAAAAGUUAUCAGGCAUGCACCUGGUAGCUAGUCUUUAAACCAAUAGAUUGCAUCGGUUUAAAAGGCAAGACCGUCAAAUUGCGGGAAAGGGGUCAACAGCCGUUCAGUACCAAGUCUCAGGGGAAACUUUGAGAUGGCCUUGCAAAGGGUAUGGUAAUAAGCUGACGGACAUGGUCCUAACCACGCAGCCAAGUCCUAAGUCAACAGAUCUUCUGUUGAUAUGGAUGCAGUUCACAGACUAAAUGUCGGUCGGGGAAGAUGUAUUCUUCUCAUAAGAUAUAGUCGGACCUCUCCUUAAUGGGAGCUAGCGGAUGAAGUGAUGCAACACUGGAGCCGCUGGGAACUAAUUUGUAUGCGAAAGUAUAUUGAUUAGUUUUGGAGUACUCGUGGUCG
In short: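 Colonies from six replicate transformations of E. coli BL21(DE3) were pooled and amplicon-sequenced on an Illumina HiSeq 2500. The library placed an intron with all eight P1ex-region nucleotides randomised inside the knt kanamycin-resistance gene on pET-22b(+), and cells grew overnight at 37°C or 30°C on LB agar with or without 25 μg/mL kanamycin (plus 100 μg/mL carbenicillin, 50 μM IPTG, 0.2% rhamnose). Fitness is the DiMSum error-weighted combination of wild-type-normalised replicate fold changes, kanamycin versus none.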

Row | Sequence | self-splicing fitness (ln) (30 °C) | self-splicing fitness (ln) (37 °C)
1 | GCGAAGCAAUAUUACGAGUG | -1.09 ± 0.1 | -2.13 ± 0.12
2 | GGCCAGCAAUAUUACGUGCG | -1.17 ± 0.06 | -0.564 ± 0.079
3 | AGAAAGCAAUAUUACGCCAA | -3.75 ± 0.17 | -2.91 ± 0.069
4 | ACACAGCAAUAUUACGAGCG | -0.734 ± 0.074 | -0.104 ± 0.088
5 | AGAAAGCAAUAUUACGACCA | -0.541 ± 0.11 | 0.144 ± 0.15
6 | UUAUAGCAAUAUUACGAUUU | -1.23 ± 0.11 | -0.501 ± 0.13
7 | CGAUAGCAAUAUUACGGCCA | -1.22 ± 0.12 | -0.957 ± 0.15
8 | UCCGAGCAAUAUUACGCGUU | -3.39 ± 0.12 | -1.95 ± 0.13
9 | UAUAAGCAAUAUUACGACAC | -1.87 ± 0.21 | -1.05 ± 0.26
10 | CUCCAGCAAUAUUACGAAUG | -1.39 ± 0.083 | -0.438 ± 0.11
11 | ACGCAGCAAUAUUACGGCUC | -0.489 ± 0.055 | -0.0273 ± 0.082
12 | AUCAAGCAAUAUUACGUACU | -0.173 ± 0.057 | 0.183 ± 0.066
13 | CAUUAGCAAUAUUACGUACC | -3.96 ± 0.21 | -1.28 ± 0.13
14 | CAAGAGCAAUAUUACGUUAC | -2.55 ± 0.12 | -2.71 ± 0.23
15 | CCGUAGCAAUAUUACGAGUA | – | -2.04 ± 0.22
16 | GGGGAGCAAUAUUACGUUUG | – | -2.43 ± 0.37
17 | CCAUAGCAAUAUUACGUUGG | -4.37 ± 0.25 | -3.27 ± 0.24
18 | UAGGAGCAAUAUUACGUUCU | -3.31 ± 0.36 | -2.54 ± 0.27
19 | UGGUAGCAAUAUUACGAUCG | 0.32 ± 0.085 | 0.623 ± 0.11
20 | GCACAGCAAUAUUACGUCUC | -0.14 ± 0.056 | 0.38 ± 0.059
21 | CACUAGCAAUAUUACGGCUG | -0.972 ± 0.054 | 0.114 ± 0.065
22 | UCAUAGCAAUAUUACGCGUC | -3.76 ± 0.31 | –

Row | Sequence | self-splicing fitness (ln) (30 °C) | self-splicing fitness (ln) (37 °C)
23 | CAAGAGCAAUAUUACGACCG | -0.953 ± 0.13 | -0.89 ± 0.14
24 | GGUGAGCAAUAUUACGAAAA | -2.57 ± 0.32 | -2.66 ± 0.38
25 | AGUUAGCAAUAUUACGAUGG | -2.45 ± 0.17 | -1.51 ± 0.19
26 | GCUCAGCAAUAUUACGACCU | -0.614 ± 0.2 | -0.401 ± 0.21
27 | GACCAGCAAUAUUACGGCUC | -0.856 ± 0.13 | 0.658 ± 0.15
28 | UAGCAGCAAUAUUACGGUAG | -1.07 ± 0.051 | -0.873 ± 0.067
29 | AGCAAGCAAUAUUACGAUCU | -0.189 ± 0.052 | 0.631 ± 0.077
30 | GAUAAGCAAUAUUACGUGAA | -2.2 ± 0.13 | -1.63 ± 0.15
31 | AGUGAGCAAUAUUACGGAAC | -2.5 ± 0.43 | –
32 | ACUGAGCAAUAUUACGGGGG | -3.19 ± 0.16 | -2.17 ± 0.17
33 | GCCAAGCAAUAUUACGGCUC | -1.99 ± 0.071 | -0.526 ± 0.091
34 | AUCUAGCAAUAUUACGCGCC | -0.659 ± 0.17 | -0.398 ± 0.16
35 | CUAGAGCAAUAUUACGAUCA | -2.35 ± 0.45 | –
36 | CUUGAGCAAUAUUACGGAAG | -2.62 ± 0.25 | -2.23 ± 0.28
37 | CCGUAGCAAUAUUACGCCUG | -0.012 ± 0.085 | -0.0205 ± 0.084
38 | GAAGAGCAAUAUUACGGGGA | -2.93 ± 0.43 | -0.71 ± 0.31
39 | UACCAGCAAUAUUACGUGAG | -2.27 ± 0.083 | -1.56 ± 0.085
40 | CAGGAGCAAUAUUACGCGCA | -3.62 ± 0.3 | -1.62 ± 0.25
41 | CGUCAGCAAUAUUACGUCUA | -0.831 ± 0.13 | -0.968 ± 0.17
42 | UGCCAGCAAUAUUACGACCU | -2.35 ± 0.19 | -1.34 ± 0.17
43 | UUGGAGCAAUAUUACGGGCG | -3.99 ± 0.39 | -2.13 ± 0.31
44 | GAGGAGCAAUAUUACGCUUU | – | -2.06 ± 0.41
